Reference: patent US20220308072A1

Columns and labels:
[1] = target: Recombinant, his tagged full length human frataxin protein (Abcam ab95502) (human) (UniProt Q16595); assay: Simoa sandwich 3-step; capture Ab-4
[2] = target: Recombinant, his tagged full length human frataxin protein (Abcam ab95502) (human) (UniProt Q16595); assay: Simoa sandwich 2-step; capture Ab-2
[3] = target: Recombinant, his tagged full length human frataxin protein (Abcam ab95502) (human) (UniProt Q16595); assay: Simoa sandwich; capture Ab-1; no helper beads; frataxin 6.17 pg/mL
[4] = target: Recombinant, his tagged full length human frataxin protein (Abcam ab95502) (human) (UniProt Q16595); assay: Simoa sandwich 2-step (120 min-5 min); capture Ab-1; frataxin 24.7 pg/mL
[5] = target: Recombinant, his tagged full length human frataxin protein (Abcam ab95502) (human) (UniProt Q16595); assay: Simoa sandwich 2-step; capture Ab-1; frataxin 18.5 pg/mL
[6] = target: Recombinant, his tagged full length human frataxin protein (Abcam ab95502) (human) (UniProt Q16595); assay: Simoa sandwich 3-step; capture Ab-2
[7] = target: Recombinant, his tagged full length human frataxin protein (Abcam ab95502) (human) (UniProt Q16595); assay: Simoa sandwich 2-step (120 min-5 min); capture Ab-1; Diluent 1 + 5% NCS; frataxin 1000 pg/mL
[8] = target: Recombinant, his tagged full length human frataxin protein (Abcam ab95502) (human) (UniProt Q16595); assay: Simoa sandwich 2-step; capture Ab-1
[9] = target: Recombinant, his tagged full length human frataxin protein (Abcam ab95502) (human) (UniProt Q16595); assay: Simoa sandwich 3-step; capture Ab-2; remark: listed apart in the source
[10] = target: Recombinant, his tagged full length human frataxin protein (Abcam ab95502) (human) (UniProt Q16595); assay: Simoa sandwich 2-step; capture Ab-1; 150 pM SβG; frataxin 55.6 pg/mL
[11] = target: Recombinant, his tagged full length human frataxin protein (Abcam ab95502) (human) (UniProt Q16595); assay: Simoa sandwich 2-step; capture Ab-1; remark: listed apart in the source
[12] = target: Recombinant, his tagged full length human frataxin protein (Abcam ab95502) (human) (UniProt Q16595); assay: Simoa sandwich 3-step; capture Ab-2; frataxin 100 pg/mL
[13] = target: Recombinant, his tagged full length human frataxin protein (Abcam ab95502) (human) (UniProt Q16595); assay: Simoa sandwich 2-step (120 min-5 min); capture Ab-1; frataxin 74.1 pg/mL
[14] = target: Recombinant, his tagged full length human frataxin protein (Abcam ab95502) (human) (UniProt Q16595); assay: Simoa sandwich 2-step (120 min-5 min); capture Ab-1; Diluent 1 + 10% NCS; frataxin 37.0 pg/mL
[15] = target: Recombinant, his tagged full length human frataxin protein (Abcam ab95502) (human) (UniProt Q16595); assay: Simoa sandwich 2-step (120 min-5 min); capture Ab-1; Diluent 1 + 5% NCS; frataxin 4.12 pg/mL
[16] = target: Recombinant, his tagged full length human frataxin protein (Abcam ab95502) (human) (UniProt Q16595); assay: Simoa sandwich 2-step; capture Ab-2; frataxin 500 pg/mL
[17] = target: Recombinant, his tagged full length human frataxin protein (Abcam ab95502) (human) (UniProt Q16595); assay: Simoa sandwich 2-step (120 min-5 min); capture Ab-1; Diluent 1 + 10% NCS; frataxin 66.7 pg/mL
[18] = target: Recombinant, his tagged full length human frataxin protein (Abcam ab95502) (human) (UniProt Q16595); assay: Simoa sandwich 2-step (120 min-5 min); capture Ab-1; Diluent 1 + 10% NCS
[19] = target: Recombinant, his tagged full length human frataxin protein (Abcam ab95502) (human) (UniProt Q16595); assay: Simoa sandwich 3-step; capture Ab-4; frataxin 1000 pg/mL
[20] = target: Recombinant, his tagged full length human frataxin protein (Abcam ab95502) (human) (UniProt Q16595); assay: Simoa sandwich 2-step; capture Ab-2; frataxin 1000 pg/mL
[21] = target: Recombinant, his tagged full length human frataxin protein (Abcam ab95502) (human) (UniProt Q16595); assay: Simoa sandwich 2-step; capture Ab-1; frataxin 1000 pg/mL
[22] = target: Recombinant, his tagged full length human frataxin protein (Abcam ab95502) (human) (UniProt Q16595); assay: Simoa sandwich 2-step (120 min-5 min); capture Ab-1; Diluent 1 + 5% NCS; frataxin 66.7 pg/mL
[23] = target: Recombinant, his tagged full length human frataxin protein (Abcam ab95502) (human) (UniProt Q16595); assay: Simoa sandwich 2-step (120 min-5 min); capture Ab-1; Diluent 1 + 10% NCS; frataxin 2.47 pg/mL
[24] = target: Recombinant, his tagged full length human frataxin protein (Abcam ab95502) (human) (UniProt Q16595); assay: Simoa sandwich 3-step; capture Ab-3; frataxin 10000 pg/mL
[25] = target: Recombinant, his tagged full length human frataxin protein (Abcam ab95502) (human) (UniProt Q16595); assay: Simoa sandwich 3-step; capture Ab-1; frataxin 10000 pg/mL
[26] = target: Recombinant, his tagged full length human frataxin protein (Abcam ab95502) (human) (UniProt Q16595); assay: Simoa sandwich 2-step (120 min-5 min); capture Ab-1; Diluent 1 + 5% NCS; frataxin 37.0 pg/mL
[27] = target: Recombinant, his tagged full length human frataxin protein (Abcam ab95502) (human) (UniProt Q16595); assay: Simoa sandwich 3-step; capture Ab-1; frataxin 100 pg/mL

Chain of UniProt Q16595 (Q16595 42-210): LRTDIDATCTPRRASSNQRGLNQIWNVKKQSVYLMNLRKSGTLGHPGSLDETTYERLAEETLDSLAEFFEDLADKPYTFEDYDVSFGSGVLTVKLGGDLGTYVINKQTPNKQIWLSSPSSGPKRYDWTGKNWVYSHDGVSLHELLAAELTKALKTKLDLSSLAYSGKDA

Substance: Ab-3, mouse monoclonal [18A5DB1] to Frataxin (Abcam ab110328) (antibody)
- LOD [1]: 1.3 pg/mL
- LOD [2]: 0.23 pg/mL
- AEB Rep1 [3]: 0.118 AEB
- AEB Rep2 [3]: 0.141 AEB
- Ave AEB [3]: 0.13 AEB
- S/B [3]: 5.74
- AEB rep1 [4]: 0.129 AEB
- AEB rep2 [4]: 0.117 AEB
- AEB rep3 [4]: 0.142 AEB
- Ave AEB [4]: 0.129 AEB
- S/B [4]: 15.7
- Ave AEB [5]: 1.98 AEB
- S/B [5]: 19.1
- LOD [6]: 0.65 pg/mL
- Ave AEB [7]: 8.95 AEB
- S/B [7]: 815
- LOD [8]: 0.27 pg/mL
- LOD [9]: 1.33 pg/mL
- Ave AEB [10]: 3.69 AEB
- S/B [10]: 82.3
- LOD [11]: 0.28 pg/mL
- Ave AEB [12]: 2.03 AEB
- S/B [12]: 45.8
- AEB rep1 [13]: 0.357 AEB
- AEB rep2 [13]: 0.356 AEB
- AEB rep3 [13]: 0.336 AEB
- Ave AEB [13]: 0.35 AEB
- S/B [13]: 42.4
- Ave AEB [14]: 0.174 AEB
- S/B [14]: 16.2
- Ave AEB [15]: 0.0434 AEB
- S/B [15]: 3.95
- Ave AEB [16]: 25.1 AEB
- S/B [16]: 263
- Ave AEB [17]: 0.602 AEB
- S/B [17]: 33.1
- LOD [18]: 0.759 pg/mL
- Ave AEB [19]: 25.2 AEB
- S/B [19]: 215
- Ave AEB [20]: 37.3 AEB
- S/B [20]: 462
- Ave AEB [21]: 30.7 AEB
- S/B [21]: 384
- Ave AEB [22]: 1.27 AEB
- S/B [22]: 70.5
- Ave AEB [23]: 0.0444 AEB
- S/B [23]: 2.44
- Ave AEB [24]: 1.06 AEB
- S/B [24]: 224
- Ave AEB [25]: 28.5 AEB
- S/B [25]: 576
- Ave AEB [26]: 0.341 AEB
- S/B [26]: 31.1
- Ave AEB [27]: 2.5 AEB
- S/B [27]: 42.3
